One assay deals with GST-Cyclin A (173–432) (UniProt P20248). Nature of the assay: fluorescence polarisation.
Assay [1] deals with strep-Cyclin F (1–546)-GST-Skp1 (1–163) (human) (UniProt P41002). The assay is described as follows: fluorescence polarisation.
Another assay deals with CP110. Nature of the assay: Coimmunoprecipitation of Flag-Cyclin F with endogenous CP110 in HEK293T cells. Conditions: anti-Flag IP, Western blot, vs WT Cyclin F. It is filed as cell-based. (Immunoblotting shows a protein as a band on a membrane.)
A further assay concerns CDC6. Nature of the assay: Coimmunoprecipitation of Flag-Cyclin F with endogenous CDC6 in HEK293T cells. It is filed as cell-based. As to conditions: anti-Flag IP, Western blot, vs WT Cyclin F.

Sequence of UniProt P20248 (P20248 173-432): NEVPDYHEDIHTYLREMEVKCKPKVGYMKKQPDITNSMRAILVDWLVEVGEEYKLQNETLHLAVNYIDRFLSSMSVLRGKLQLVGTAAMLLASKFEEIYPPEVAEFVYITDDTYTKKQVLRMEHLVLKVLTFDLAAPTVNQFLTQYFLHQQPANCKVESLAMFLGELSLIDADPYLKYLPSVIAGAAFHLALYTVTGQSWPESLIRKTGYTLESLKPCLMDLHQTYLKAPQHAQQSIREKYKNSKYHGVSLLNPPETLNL

Regarding “E2F1 peptide D93R (unlabeled) (from UniProt Q01094 84-99)”, the fold decrease in affinity against the wild-type E2F1 peptide (with GST-Cyclin A (173–432); in assay [1]) was 3 fold each time.

On to “E2F1 peptide K89E (unlabeled) (from UniProt Q01094 84-99)”, for which the fold decrease in affinity against the wild-type E2F1 peptide in the assay with GST-Cyclin A (173–432) was 48 fold; in assay [1], 24 fold.

Consider “E2F1 peptide R91E (unlabeled) (from UniProt Q01094 84-99)”, for which the fold decrease in affinity against the wild-type E2F1 peptide with GST-Cyclin A (173–432) was 12 fold; in assay [1] it was 41 fold.

As for “E2F1 peptide V88E (unlabeled) (from UniProt Q01094 84-99)”, the results for the fold decrease in affinity against the wild-type E2F1 peptide (with GST-Cyclin A (173–432); in assay [1]) were 460 fold and 31 fold, respectively.

B1: Cyclin F loop mutant: Flag-Cyclin F mutant containing D504-T511 all changed to alanine (protein)
chain: MGSGGVVHCRCAKCFCYPTKRRIRRRPRNLTILSLPEDVLFHILKWLSVEDILAVRAVHSQLKDLVDNHASVWACASFQELWPSPGNLKLFERAAEKGNFEAAVKLGIAYLYNEGLSVSDEARAEVNGLKASRFFSLAERLNVGAAPFIWLFIRPPWSVSGSCCKAVVHESLRAECQLQRTHKASILHCLGRVLSLFEDEEKQQQAHDLFEEAAHQGCLTSSYLLWESDRRTDVSDPGRCLHSFRKLRDYAAKGCWEAQLSLAKACANANQLGLEVRASSEIVCQLFQASQAVSKQQVFSVQKGLNDTMRYILIDWLVEVATMKDFTSLCLHLTVECVDRYLRRRLVPRYRLQLLGIACMVICTRFISKEILTIREAVWLTDNTYKYEDLVRMMGEIVSALEGKIRVPTVVDYKEVLLTLVPVELRTQHLCSFLCELSLLHTSLSAYAPARLAAAALLLARLTHGQTQPWTTQLWDLTGFSYEDLIPCVLSLHKKCFHDDAPKAAAAAAAAAVKQRFEDKRYGEISQEEVLSYSQLCAALGVTQDSPDPPTFLSTGEIHAFLSSPSGRRTKRKRENSLQEDRGSFVTTPTAELSSQEETLLGSFLDWSLDCCSGYEGDQESEGEKEGDVTAPSGILDVTVVYLNPEQHCCQESSDEEACPEDKGPQDPQALALDTQIPATPGPKPLVRTSREPGKDVTTSGYSSVSTASPTSSVDGGLGALPQPTSVLSLDSDSHTQPCHHQARKSCLQCRPPSPPESSVPQQQVKRINLCIHSEEEDMNLGLVRL
modifications: left off: Flag, end not stated, kept
For B1, the “association with CP110 (coimmunoprecipitation)” value in the assay with CP110 is listed as “weaker association was more apparent”. Also, the “association with CDC6 (coimmunoprecipitation)” value in the assay on CDC6 is listed as “weaker association was more apparent”.

For the origin of these results see PMC11761524 (bioRxiv, 2025).
